Test results taken from article PMC10307800, “Structure of human CALHM1 reveals key locations for channel regulation and blockade by ruthenium red” (Nature Communications, 2023).
Values joined by “and” are separate entries in the source; they are usually repeats but may differ in a detail not shown here. Identical values can stand only once.

Columns and labels:
[1] = target: chicken CALHM1Δct (residues 1-291, C-terminal Strep-II tag) (chicken); assay: cryo-EM 2D classification; 'top' views of 2D classification of the same nanodisc samples
[2] = target: chicken CALHM1Δct (residues 1-291, C-terminal Strep-II tag) (chicken); assay: cryo-EM structure; single-particle 3D reconstruction in lipid nanodiscs (soybean polar extract, MSP2N2); chicken: 20 mM Tris pH 8.0, 150 mM NaCl, 1 mM EDTA; human: 20 mM HEPES-NaOH pH 7.5, 200 mM NaCl, 1 mM EDTA
[3] = target: killifish CALHM1Δct (killifish); assay: cryo-EM 2D classification; reanalysis of the publicly available dataset EMPIAR #10444
[4] = target: human CALHM1Δct-Ile109Trp (C-terminal Strep-II tag) (human) (UniProt Q8IU99); assay: cryo-EM structure; single-particle reconstruction in lipid nanodiscs, 20 mM HEPES-NaOH pH 7.5, 200 mM NaCl; with RuR (50 µM RuR, 1 mM EGTA; C8 and C1 maps) and RuR-free (1 mM EDTA)
[5] = target: the molecule itself; assay: cryo-EM 2D classification; 'top' views of 2D classification of the same nanodisc samples
[6] = target: the molecule itself; assay: cryo-EM structure; single-particle 3D reconstruction in lipid nanodiscs (soybean polar extract, MSP2N2); chicken: 20 mM Tris pH 8.0, 150 mM NaCl, 1 mM EDTA; human: 20 mM HEPES-NaOH pH 7.5, 200 mM NaCl, 1 mM EDTA

“chicken CALHM1Δct (residues 1-291, C-terminal Strep-II tag) (domain or fragment)” was tested, and the stoichiometry N [1] was 8 and 9 and the stoichiometry N [2] was 8.

In the case of “killifish CALHM1Δct (domain or fragment)”, the stoichiometry N [3] is reported as 8 and 9.

“human CALHM1Δct-Ile109Trp (C-terminal Strep-II tag) (from UniProt Q8IU99 1-303) (domain or fragment)” gave a stoichiometry N [4] of 8.

B1: human CALHM1Δct (calcium homeostasis modulator 1, residues 1-303, C-terminal Strep-II tag) (domain or fragment, UniProt Q8IU99 1-303, looked up)
chain: MMDKFRMIFQFLQSNQESFMNGICGIMALASAQMYSAFDFNCPCLPGYNAAYSAGILLAPPLVLFLLGLVMNNNVSMLAEEWKRPPGRRAKDPAVLRYMFCSMAQRALIAPVVWVAVTLLDGKCFLCAFCTAVPVSALGNGSLAPGLPAPELARLLARVPCPEIYDGDWLLAREVAVRYLRCISQALGWSFVLLTTLLAFVVRSVRPCFTQAAFLKSKYWSHYIDIERKLFDETCTEHAKAFAKVCIQQFFEAMNHDLELGHTHGTLATAPASAAAPTTPDGAEEEREKLRGITDQGTMNRLL
notes: calcium homeostasis modulator 1 (CALHM1), human, residues 1-303 (C-terminal truncation; residues 303-346 follow the CTH in the whole protein); Octamer in the 3D reconstruction; nonameric particles were also seen in 2D classes; also called hCALHM1Δct; hCALHM1∆ct; source: HEK293S GnTI- cells, baculovirus infection; purified (Strep-Tactin, SEC), reconstituted into lipid nanodiscs (MSP2N2, soybean …)
With B1 the “stoichiometry N” value [5] was 9 and the “stoichiometry N” value [6] was 8.
